Reference: US20240043507A1 (RQ BIOTECHNOLOGY, published 2024)
Residue numbers refer to the chain shown, from its start.

B1: Fab 75 (Fab, V domains shown)
VH: QVQLVESGGGVVQPGRSLRLSCAASGFTFNNYPLHWVRQAPGKGPEWVAVISQDGGNKYYVDSVKGRFTISRDNSKNTLYLQMNNLRAEDTALYYCARDVVVVVAARNHYYNGMDVWGQGTTVTVSS
VL: DIQLTQSPSSVSASVGDRVTITCRASQGISSWLAWYQQKPGKAPKLLIYAVSSLQSGVPSRFSGSGSGTDFTLTISSLQPEDFATYYCQQAKSFPFTFGPGTKVEIK
notes: Fab
B2: mAb 45 (antibody, V domains shown)
VH: QVQLVESGGGVVQPGRSLRLSCAASGFTFSTYAMHWVRQAPGKGLEWVAVLSYDGSNKYYADSVKGRFTISRDNSKNTLYLQMNSLRAEDTAVYYCAKGGSYAYYYYMDVWGKGTTVTVSS
VL: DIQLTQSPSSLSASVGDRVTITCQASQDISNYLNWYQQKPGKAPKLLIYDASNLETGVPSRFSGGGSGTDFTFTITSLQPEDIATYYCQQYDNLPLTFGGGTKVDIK
notes: also called antibody 45
B3: antibody 278 (antibody, V domains shown)
VH: QVQLVQSGAEVKKPGASVKVSCKASGYIFIRYGISWVRQAPGQGLEWMGWISANNGYTNYAQKLQGRVTMTTDTSTSTAYMELRSLRSDDTAVYYCARDGGILTGYLDYFDHWGQGTLVTVSS
VL: DIQMTQSPSSLSASVGDRLTITCRASQSIASYLNWYQQKPGKAPKLLIYAASSLQSGVPSRFSGSGSGTDFTLTISSLQPEDFATYHCQQSYSTLGITFGPGTKVDIK
notes: also called mAb 278
B4: antibody 281 (antibody, V domains shown)
VH: QVQLVESGGGLVQPGGSLRLSCAASGFPFSIYWMSWVRQAPGKGLEWVANIKQDGSEKYYVDSVKGRFTISRDNAKNSLYLHMNSLRGEDTAVYYCASRYYDFRPEAWFDYWGQGTLVTVSS
VL: not shown
B5: antibody 158 (antibody, V domains shown)
VH: EVQLLESGGDLIQPGGSLRLSCAASGVTVSSNYMSWVRQAPGKGLEWVSIIYPGGSTFYADSVKGRFTISRDNSKNTLYLQMHSLRAEDTAVYYCARDLGSGDMDVWGKGTTVTVSS
VL: DIVMTQSPSFLSASVGDRVTITCRASQGISSYLAWYQQKPGKAPKLLIQAASTLQSGVPSRFSGSGSGTEFTLTISSLQPEDFATYYCQQLNSYRYTFGQGTKVEIK
notes: also called mAb 158
B6: antibody 88 (antibody, V domains shown)
VH: QLQLQESGPGLVKPSQTLSLTCTVSGGSISSGSYNWTWIRQPAGKGLEWIGRIYNSGSTNYNPSLKSRVTISVDTSKNQLSLKVRSVTAADTAVYYCARHCSGGTCYPKYYYGMDVWGQGTTVTVSS
VL: QSALTQPPSVSEAPRQRVTISCSGSSSNIGNNAVNWYQQFPGKAPKLLIYYDDLLPSGVSDRFSGSKSGTSASLAISGVQSEDEADYYCAAWDDSLNVVVFGGGTKLTVL
notes: also called mAb 88
B7: antibody 175 (antibody, V domains shown)
VH: EVQLVESGGGLIQPGGSLRLSCAASGLTVSRNYMSWVRQAPGKGLEWVSLIYSGGSTYYADSVKGRFTISRDNSKNTLYLQMNSLRAEDTAVYYCARDLRGEVWGQGTMVTVSS
VL: not shown
notes: also called mAb 175
B8: antibody 269 (antibody, V domains shown)
VH: QVQLVESGGGLIQPGGSLRLSCAASGLTVNRNYMSWIRQAPGKGLEWVSVIYSGGSTFYADSVKGRFTISRDNSKNTLSLQMNSLRAEDTAIYYCARDFYEGSFDIWGQGTMVTVSS
VL: AIQLTQSPSFLSASIGDRVTITCRASQGISSYLAWYQQKPGKAPKLLIYAASTLQSGVPSRFSGSGSGTEFTLTISSLQPEDFASYYCQQLNSYPAPVFGPGTKVDIK
notes: also called mAb 269
B9: antibody 318 (antibody, V domains shown)
VH: QVQLVQSGPEVKKPGTSVKVSCKASGFTLTSSAMQWVRQARGQRLEWIGWIVVGSGNTNYAQKFQERVTITRDMSTSTAYMELSSLRSEDTAVYYCAAGRGYNSDFDYWGQGTLVTVSS
VL: AIRMTQSPGTLSLSPGERATLSCRASQSVSSSYLAWYQQRPGQAPRLLIYGTSSRATGIPDRFSGSGSGTDFTLTISRLEPEDFAVYYCQQYGYSVYTFGQGTKVDIK
notes: also called mAb 318
B10: antibody 398 (antibody, V domains shown)
VH: QVQLVESGGGLVQPGGSLRLSCAASGFTVSSNYMTWVRQAPGKGLEWVSVIYSGGSTYYADSVKGRFTISRDNSKNTLYLQMNSLRADDTAVYYCARDSTADYDFWSGYYVGAFHIWGQGTMVTVSS
VL: QTVLTQPASVSGSPGQSITISCTGTSSDVGGYNYVSWYQQHPGKAPKLMIYEVTKRPSGVPDRFSGSKSGNTASLTVSGLQAEDEADYYCSSYAGSNNWVFGGGTKLTVL
notes: also called mAb 398
B11: antibody 253H165L (antibody, V domains shown)
VH: not shown
VL: DIVMTQSPGTLSLSPGERATLSCRASQSVRSSYLAWYQQKPGQAPRLLIYGASRRGTGIPDRFSGSGSGTDFTLTISRLEPEDFAVYYCQQYGSSPWTFGQGTKVEIK
B12: antibody 165 (antibody, V domains shown)
VH: QVQLVQSGPEVKKPGTSVKVSCKASGFTFTSSAVQWVRQARGQRLEWIGWIVVGSGNTNYAQKFQESVTITRDMSTSTAYMELSSLRSEDTAVYYCAAPHCIGGSCHDAFDIWGQGTMVTVSS
VL: B11 VL
notes: also called mAb 165
B13: Fab of antibody 281 (Fab, V domains shown)
VH: B4 VH
VL: not shown
B14: Fab of antibody 158 (Fab, V domains shown)
VH: B5 VH
VL: B5 VL
notes: also called 158 Fab; Fab 158
B15: Fab of antibody 88 (Fab, V domains shown)
VH: B6 VH
VL: B6 VL
notes: also called 88 Fab; Fab 88
B16: Fab of antibody 175 (Fab, V domains shown)
VH: B7 VH
VL: not shown
B17: Fab of antibody 269 (Fab, V domains shown)
VH: B8 VH
VL: B8 VL
notes: also called 269 Fab; COVOX-269
B18: Fab of antibody 222 (Fab, V domains shown)
VH: EVQLVESGGGLIQPGGSLRLSCAASGLTVSSNYMSWVRQAPGKGLEWVSVIYSGGSTFYADSVKGRFTISRDNSKNTLYLQMNSLGAEDTAVYYCARGEGSPGNWFDPWGQGTLVTVSS
VL: DVVMTQSPGTLSLSPGERATLSCRASQSVPSSYLAWYQQKPGQAPRLLIYGASTRATGIPDRFSGSGSGTDFTLTISRLEPEDFAVYYCQHYDTSPRFGGGTKVDIK
B19: Fab of antibody 40 (Fab, V domains shown)
VH: QVQLVESGGGLVQPGGSLRLSCAVSGFTVSRNYMSWVRQAPGKGLEWVSLIYSGGSTFYADSVKGRFTISRDNSKNTLYLQMNSLRAEDTAVYYCARDLFHRSGYHDYWGQGTLVTVSS
VL: not shown
notes: also called 40 Fab; Fab 40
B20: Fab of antibody 318 (Fab, V domains shown)
VH: B9 VH
VL: B9 VL
B21: Fab of antibody 316 (Fab, V domains shown)
VH: not shown
VL: B10 VL with T2A, A8P, V10A, I18V, T54S, N98H
notes: also called 316 Fab; Fab 316
B22: Fab of antibody 398 (Fab, V domains shown)
VH: B10 VH
VL: B10 VL
B23: Fab of antibody 58 (Fab, V domains shown)
VH: QVQLVESGGGLVQPGRSLRLSCAASGFTFDDYAMHWVRQPPGKGLEWVSGVSWNSGTIGYADSVKGRFIISRDNAKNSLYLQMNSLKAEDTALYYCAREVGGTFGVLISREGGLDYWGQGTLVTVSS
VL: SYELTQPPSVSVAPGQTARITCGGNTIGSKSVHWYQQRPGQAPVLVVYDDSDRPSGIPERFSGSNSGNTATLTISRVEAGDEADYYCQVWDSSSDRVVFGGGTKLTVL
B24: Fab 75 (Fab, V domains shown)
VH: B1 VH
VL: B1 VL

Target: T1, SARS-CoV-2 receptor binding domain (RBD), native (SARS-CoV-2, UniProt P0DTC2 330-532)
T1 construct: range 330-532
Assay: crystal structure

| Binder | binding result |
| --- | --- |
| B1 | binds |

Target: T1, SARS-CoV-2 receptor binding domain …
Assay: method and antigen not stated there

| Binder | Kd [µg/mL] |
| --- | --- |
| B2 | 0.018 |

Target: T2, SARS-CoV-2 spike receptor binding domain, native (SARS-CoV-2, UniProt P0DTC2 330-532)
T2 construct: range 330-532
Assay: BLI, RBD on AR2G biosensor, mAb as analyte

| Binder | Kd [nM] |
| --- | --- |
| B3 | 4.16 |
| B4 | 0.97 |
| B5 | 1.89 |
| B6 | 2.9 |
| B7 | 1.36 |
| B8 | 0.76 |
| B9 | 4.43 |
| B10 | 4.63 |
| B11 | 3.38 |
| B12 | 2.15 |

Target: T3, SARS-CoV-2 receptor binding domain, native (501N) (SARS-CoV-2, UniProt P0DTC2 330-532)
T3 construct: range 330-532
Assay: BLI, RBD immobilised on AR2G biosensor, 1:1 fit

| Binder | Kd [nM] |
| --- | --- |
| B13 | 3.2 |
| B14 | 0.53 |
| B15 | 0.64 |
| B16 | 0.97 |
| B17 | 1.59 |
| B18 | 0.29 |
| B19 | 0.55 |
| B20 | 2.23 |
| B21 | 1.5 |
| B22 | 1.02 |
| B23 | 0.3 |

Target: T4, SARS-CoV-2 spike receptor binding domain (RBD), His-tagged (SARS-CoV-2 (Wuhan-Hu-1 strain), UniProt P0DTC2 330-532)
T4 construct: range 330-532
Assay: X-ray crystal structure of the ternary complex RBD/Fab 253/Fab 75

| Binder | binding result |
| --- | --- |
| B24 | binds |
